Assay: soluble on expression in E. coli; label from the status in PepcDB or PDB records

| Sequence | soluble on expression in E. coli |
| --- | --- |
| SEKADEKTYDLRDPSQLVALFTENENEDFIKISLSKYIESLIQSHNMASYNIVFLYDETRSISRYHSNQIYEAASSATDKKDILLILHSGGGQIEPAYLISKTCKSLTKKKFVVGIPRRAKSAATLISLGADEIHMGLMSELGPIDPQIGGYPALGLSNALNTLAGLACRFPDSADMFAKYLTDNLNLKDLGYFERVSESASQYAERLLAGKKFPAPSTAQSLANHFVNHYKDHGFVIDSDEATNLLGSNIIKQNTAEYLFANELYKFLDFASF | not soluble |
| SERRLGVRAWVKENRGSFQPPVCNKLMHQEQLKVMFIGGPNTRKDYHIEEGEEVFYQLEGDMVLRVLEQGKHRDVVIRQGEIFLLPARVPHSPQRFANTVGLVVERRRLETELDGLRYYVGDTMDVLFEKWFYCKDLGTQLAPIIQEFFSSEQYRTGKPIPDQLLKEPPFPLSTRSIMEPMSLDAWLDSHHRELQAGTPLSLFGDTYETQVIAYGQGSSEGLRQNVDVWLWQLEGSSVVTMGGRRLSLAPDDSLLVLAGTSYAWERTQGSVALSVTQDPACKKPLG | soluble |
| SFDRALKPFLKSCHFQTLRDPVDQCVSYHLRSVTEKFPEVHMEVIADYEVHPNRRPKILAQTAAHVAGAAYYYQRQDVDADPWGTQHIAGVCIHPRFGGWFAIRGVMLLPGIEVPNLPPRKPPDCVPTRAGRITLLEGFNFHWRDWTYRDAVTPEERYSEEQKIYFSTPPAQRLALLGLAQPSEHPSTTSELPLSLLTKPQNSRRARSWLSPSVSPPVSPGP | soluble |
| SFKADLGTIGIQLHTTYSRRIRKVKVMDNRKEPPFFNEDNVGPFYFKLPFYDPMELFIETLTGTCFELRVSPFEAVISVKGKIQRLEGIPICQQHLIWNNMELEDDYCLNDYNISEGCTLKLVLAMRGGPISTRKVPVEDPLRELAEYMDSSRDEVWEKTSCNKQVTFLVYREGDQLNFFRVVDRGDGTLTPLSESLSGGSVYNLYTDEDEETEPSPSGQQIIENSITMNKMKLLKAKMENMNLSKKVKPLAVRQAFL | soluble |
| SFQEQTTKSRDVNSFQIPLRDGVRELLPEDASRNRASIKSPVDIWIGGENMTALNGIVDGGRKFEAGQEFQINTFGSVNYWVSDEEIRVFKEYSARAKYAQNEGRTALEANNVPFFDIDVPPELDGVPFSLKARVRHKSKGVDGLGDYTSISVKPAFYITEGDETTDTLIKYTSYGSTGSHSGYDFDDNTLDVMVTLSAGVHRVFPVETELDYDAVQEVQHDWYDESFTTFIEVYSDDPLLTVKGYAQILMERT | soluble |
| SGIGTGHTSMNKGGKDVTLLELSVEKRRWRINMETSKIILEKMQSDDVLDGNRERSNEREGRDSLSEKLKSKQNLKDEEKLRYIKTGKSIQVEGTVRAKALRWVQ | soluble |
| SGSRDHLFKVLVVGDAAVGKTSLVQRYSQDSFSKHYKSTVGVDFALKVLQWSDYEIVRLQLWDIAGQERFTSMTRLYYRDASACVIMFDVTNATTFSNSQRWKQDLDSKLTLPNGEPVPCLLLANKCDLSPWAVSRDQIDRFSKENGFTGWTETSVKENKNINEAMRVLIEKMMRNSTEDIMSLSTQGDYINLQTKSSSWSCC | soluble |
| SHMQSRELKTVSADCKKEAIEKCAQWVVRDCRPFSAVSGSGFIDMIKFFIKVKAEYGEHVNVEELLPSPITLSRKVTSDAKEKKALIGREIKSAVEKDGASATIDLWTDNYIKRNFLGVTLHYHENNELRDLILGLKSLDFERSTAENIYKKLKAIFSQFNVEDLSSIKFVTDRGANVVKSLANNIRINCSSHLLSNVLENSFEETPELNMPILACKNIVKYFKKANLQHRLRSSLKSECPTRWNSTYTMLRSILDNWESVIQILSEAGETQRIVHINKSIIQTMVNILDGFERIFKELQTCSSPSLCFVVPSILKVKEICSPDVGDVADIAKLKVNIIKNVRIIWEENLSIWHYTAFFFYPPALHMQQEKVAQIKEFCLSKMEDLELINRMSSFNELSATQLNQSDSNSHNSIDLTSHSKDISTTSFFFPQLTQNNSREPPVCPSDEFEFYRKEIVILSEDFKVMEWWNLNSKKYPKLSKLALSLLSIPASSAASERTFSLAGNIITEKRNRIGQQTVDSLLFLNSFYKNFCK | soluble |
| SILELAEYTYFPPTLMASLILKNCDFSRKSINWLFKHLDCIENRRLRKEVRKALNADYFFSPRAHEMQCRKGEMGEEIVRKWLDDREIAYCTEAEIRAKGDGKTPDFVLSNPIFIEDHMVSWIESKALFGDDFEHKHYAKKQFREYADIFGEGMVVYWYGFLEDLSSEDEGYLIKDYRFFEGYQEQTDEL | soluble |
| SISTHESQKLREYYRLLNLDEGCSVDDVRESFHKLARQYHPDSGSSDADSATFIKIEEAYRNVLSHAIKRMHAGQDKAEDAAEDEEEGKFKYNTPQHRHYLSFEGVGFGTPSQREKQYRQFRADRATEQVMEYQRQKLQREFFANSITVKDVRQSKQQKITQAIERLVEDLIQESMAKGDFDNLSGKGKPLKKFSGCSYIDPMTHNLNRILIDNGYQPEWILMQKEIKDTIEQLREALLMSRKKLGNPLSPTEQKQWAQVCEQFQEKIRKLNKRINDFNLIVPILTRQKVHFDAQKEIIRVQEMYGAFVEANEVTEENQTDVSQGEESKTPRVKAGFLNWLNLWKSIKI | soluble |
| SKDLSVSLQANFTYNKNKMVYVDEPEYPTIWKSETGKPYSRITGYIAEGLFKSQEEIDNSPAQNLGSTPKVGDIKYRDLNGDGIIDSDDQTMISKYGSTPRLQYGFGGTVNYKKFDFGVFFSGSALRSIMTNGIDPFQEGIAVGNRNVLKYIADNYWSEEKQNWDAKYPRLGLLATDVANNTVNSSYWLRNGSFLRLKNVEVGYKIPYGRIFVSAANLFTFSPFDLWDPELSSWNSYPMQKTVNVGIQLQF | not soluble |
| SKQPDKQRKSQRRAPLHERHKQVRATLSADLREEYGQRNVRVNAGDTVEVLRGDFAGEEGEVINVDLDKAVIHVEDVTLEKTDGEEVPRPLDTSNVRVTDLDLEDEKREARLESEDDSA | soluble |
| SLAQLDKNDPARGVLAAIAANASKIAEYDPRVRADEYDSVHQMRVATRELRSHLQTFEGILGGEDYLNLEKELKVLANILGRARDAEVVEERLSNLINTEVGDSIEEETKKELLEDLGAEYRREHERVVRALDNDRYTDLLQALENLLVDPPLITEVEEPEATEAPESAETTESTDVSEATEEADAEAESVEEATEQEESADAPESADLDALDEEYSPGSQAPVEEPKEPKKVDAALVLLEHLDKAHVKLVKLEKKARSQWDDLSIPMLEREENFHNLRKAAKKLRYSAEAVGKATTVETKKLYKACSGLQSVLGDYQDAITSRNELLRRAQVARRQGRDTFAYGILYQHEQTLSREYLTGYSDAFKSVEKAYAKLAEDTAKRSKKNKRK | soluble |
| SLARELMRTQKEIFALILDFAKRTDSIRAVTLEGSRANPNIKQDKFCDYDISFFLNAKNLESFKNNEEWLKIFGNILMLQKPESMELYPPDLREGWFSFLVLFDDGVRIDLSLIPLADIEWYKDNERLMRVLLDKDNQFMPINEPSDSAFFIKPLTKQSFLDCCNELYWLYVCTHKDILRGELLLANAHLAMMREGLLILLSWRVALRQNNFAFSLGKEYKFLPHFLEPKERKTLYKCYKLGDLKQAQKTLKIMEKFFAKNARELIKVHFKDLHTLPYAKVAKQYVRILKHKIV | soluble |
| SLARSPSVSAGTRPHAGEHTDTSPISSAVSAPSPSSLPLVFSPQPSVSSSSLPLSSSSLARVSSSPQPSASSASLPLSSSRQSGEALGSSGAASSESSRERQGKLRLRHPRQRKPFLLQVLHAEHRCHNPRELARVQRAGGSIFAGRVGGVLEPSRSVGDFDVKDAQPPGVLIATPEVCRVKVRKPTLVLLGTDGVWDMLCSADVLACVKKVTQFWQLLLAAFRERMEELQEEATEKQENEKERGEGDQVRESSGNGKG | soluble |
| SLDICSKNPCHNGGLCEEISQEVRGDVFPSYTCTCLKGYAGNHCETKCVEPLGMENGNIANSQIAASSVRVTFLGLQHWVPELARLNRAGMVNAWTPSSNDDNPWIQVNLLRRMWVTGVVTQGASRLASHEYLKAFKVAYSLNGHEFDFIHDVNKKHKEFVGNWNKNAVHVNLFETPVEAQYVRLYPTSCHTACTLRFELLGCELNGCANPLGLKNNSIPDKQITASSSYKTWGLHLFSWNPSYARLDKQGNFNAWVAGSYGNDQWLQVDLGSSKEVTGIITQGARNFGSVQFVASYKVAYSNDSANWTEYQDPRTGSSKIFPGNWDNHSHKKNLFETPILARYVRILPVAWHNRIALRLELLGC | soluble |
| SLEGGDTLEGSMAQLKKGLESGTVLIQFEQLYRKKPGLAITFAKLPQNLDKNRYKDVLPYDTTRVLLQGNEDYINASYVNMEIPAANLVNKYIATQGPLPHTCAQFWQVVWDQKLSLIVMLTTLTERGRTKCHQYWPDPPDVMNHGGFHIQCQSEDCTIAYVSREMLVTNTQTGEEHTVTHLQYVAWPDHGVPDDSSDFLEFVNYVRSLRVDSEPLLVHCSAGIGRTGVLVTMETAMCLTERNLPIYPLDIVRKMRDQRAMMVQTSSQYKFVCEAILRVYEEGLVQMLDPS | soluble |
| SLENVLASHSKMQGALEKVQIELGRRDSEIAGLKKERDLNQQRVQKLEAEVDQWQARMLVMEDQHNSEIESLQKALGVAREDNRKLAMSLEQALQTNNHLQTKLDHIQEQLESKELERQNLETFKDRMTEESKVEAELHAERIEALRKQFQTERETTKKVAQREVAELKKALDEANFRSVEVSRTNRELRQKLAELEKILESNKEKIKNQKTQIKLHLSAKANNAQNIERMKVVWETSSHFLDTL | soluble |
| SLETKVAARDLSSLLSHCEAPVAALTVTAFKCKASACSVAPAPGSNTGLGALMSMAQAAQGLQTFPNIGDGLSNALTTALKTTGCFKVMAREDFEDLRREAEAAGITLKSASADYLVTGAITSLAVGAKTQSFGGGFVPLVGAVSRSTKSANISIDVRLVDVKASEVKASQTFDVSNERSSWGAGGAGWGGSGALFGAASSTQSPELDSVANESVIQAANYIVTQVAGSAAIPPVAAITK | soluble |
| SLGNGMNKILPGLYIGNFKDARDAEQLSKNKVTHILSVHDSARPMLEGVKYLCIPAADSPSQNLTRHFKESIKFIHECRLRGESCLVHCLAGVSRSVTLVIAYIMTVTDFGWEDALHTVRAGRSCANPNVGFQRQLQEFEKHEVHQ | not soluble |
| SLGQADTERLLSDRKLVLLVDLDQTLIHTTNDNVPNNLKDVYHFQLYGPNSPWYHTRLRPGALEFLAKMHPYYELHICTFGARNYAHMIAQFLDKDGNFFSHRILSRDECFNATSKTDNLKALFPCGDSMVCIIDDREDVWNMASNLIQVKPYHFFRHTGDINAPPGMSKNELDGKGVDFKELMSQSQK | soluble |
| SLHVTELTAFLVPLPLKREIKHASFTRTESINLLIRCKLSNGTIGWGEGVPRPYVTGETPEGCLQQLSQSNLHPALMQSASNWPEVIAICDALQFNNDSDDSRGCGSNSLRCAVELSLLDAFGRHFGQPVSAVVPHVAEAAEIHVRQPRVRYSTTITSSGAKSERISALKMRAYGFAQCKIKVGVDGQDDPSRVARIRRWIGGGVDLRLDANEAWRPEEVAEKMRPLREFGVTCIEQPVAHDQVDALASLRESIGVPIMLDESLTSRMDAERAIELGTCDLFNLRLSKCGGFLSCLRLAALARASGLGYQLGCHPGESGVLSAAGRHWASSVRDIRYLEGSYDRHLLTTLPTQEDITFRYGGWAPALDSPGLGVTIREDWLRQNAKAERTFVVEAQ | soluble |
| SLIDKIKSNARDLRRNLTLQERKLWRYLRSRRFSDFKFRRQHPVGSYILDFACCSARVVVELDGGQHDLAVAYDSRRTSWLESQGWTVLRFWNNEIDCNEETVLENILQELNRRSPSP | soluble |

— the DeepSol protein solubility set
